Results taken from paper PMC3726529 (Nature, 2013).

What was measured:
isolated TrkA (VpTrkA) = biological target: T1, isolated TrkA (VpTrkA) (Vibrio parahaemolyticus, UniProt Q87KD2); assay: co-crystal structure, […] Å; format: binding; conditions: 10 mM ATPγS; GXGXXG motif in the N lobe of each RCK domain
T1 sequence (Q87KD2 1-458): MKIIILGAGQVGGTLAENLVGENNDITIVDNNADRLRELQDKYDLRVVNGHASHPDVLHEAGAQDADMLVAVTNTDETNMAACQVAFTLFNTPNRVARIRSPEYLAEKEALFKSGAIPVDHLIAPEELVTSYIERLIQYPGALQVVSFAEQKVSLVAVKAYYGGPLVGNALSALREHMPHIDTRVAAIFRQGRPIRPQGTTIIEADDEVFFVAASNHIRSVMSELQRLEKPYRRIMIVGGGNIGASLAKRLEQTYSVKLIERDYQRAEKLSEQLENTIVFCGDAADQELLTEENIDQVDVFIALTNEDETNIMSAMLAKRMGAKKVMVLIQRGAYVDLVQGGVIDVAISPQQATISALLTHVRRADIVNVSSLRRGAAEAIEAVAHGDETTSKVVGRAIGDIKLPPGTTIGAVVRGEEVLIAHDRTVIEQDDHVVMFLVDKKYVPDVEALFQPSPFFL

[1] = biological target: TrkA from Vibrio parahaemolyticus, co-expressed with TrkH (Vibrio parahaemolyticus); assay: crystal structure
[2] = biological target: isolated TrkA from Vibrio parahaemolyticus (Vibrio parahaemolyticus)
crystal structure = biological target: the molecule itself; assay: crystal structure

Nc1ncnc2c1ncn2[C@@H]1O[C@H](COP(=O)(O)OP(=O)(O)OP(O)(O)=S)[C@@H](O)[C@H]1O [ATPγS, adenosine 5′-O-(3-thiotriphosphate)]
co-crystal structure, 3.05 Å (isolated TrkA (VpTrkA)): Each protomer contains two large densities consistent with ATPγS molecules

TrkA from Vibrio parahaemolyticus, co-expressed with TrkH (natural protein)
stoichiometry N [1]: 4

isolated TrkA from Vibrio parahaemolyticus (natural protein)
stoichiometry N [2]: 4

B1: TrkH from Vibrio parahaemolyticus (natural protein)
chain: MQFRSIIRIVGLLLALFSVTMLAPALVALLYRDGAGVPFVTTFFVLLFCGAMCWFPNRRHKHELKSRDGFLIVVLFWTVLGSAGSLPFLIADNPNISVTDAFFESFSALTTTGATVIVGLDELPKAILFYRQFLQWFGGMGIIVLAVAILPVLGIGGMQLYRAEIPGPVKDTKMTPRIAETAKALWYIYLSLTIACAVAFWLAGMTPFDAISHSFSTIAIGGFSTHDASMGYFDSYAINLITVVFLLISACNFTLHFAAFASGGVHPKYYWKDPEFRAFIFIQVLLFLVCFLLLLKHHSYTSPYDAFDQALFQTVSISTTAGFTTTGFADWPLFLPVLLLFSSFIGGCAGSTGGGMKVIRILLLTLQGARELKRLVHPRAVYTIKVGGSALPQRVVDAVWGFFSAYALVFVVCMLGLIATGMDELSAFSAVAATLNNLGPGLGEVALHFGDVNDKAKWVLIVSMLFGRLEIFTLLILLTPTFWRS
stoichiometry N (crystal structure): 2
